Experimental data from the DeepSol protein solubility set.

Test: soluble on expression in E. coli; label from the status in PepcDB or PDB records

| Sequence | soluble on expression in E. coli |
| --- | --- |
| MEEAKNMALLFFMDHLMQKNGRRTIHDLSCQFGARGFSEEMRNAVGTTQEGLTEFLQGHPSLFTVEGDQVILNGHNDLNAKNNPLLQSGIRSRNYEKEAVDFFVTKLTKFGPELQIKSLLGHRSQAAPEVRLVSGRHLKEFCEFLQSQVDYFVVEGDRVRLKNMPEPDENAIEMDDEGRPLAGVKAKQAAVEYLKSVLEQNEDQPIPLDQFYQNFCQRFSHTIRQDVATNPKELLQFLKLNRGLFFIRSNKVSLVKNRLNEDGSENGSDEGEETNNNGMFPLDQSALTRIHFVKALKPAQDLISRLWQDINNMEKKVVGLDLKTVTVGVDGEIFLSLGVIATTSQIGIFDLASSDVIILESGFKGILESEKVVKVIHDARRVASLLAHKYAVHMRNVFDTQVAHSLLQHEKFNKSLNEMRPISFINLQRVYYPQSIMLSDVTPRKMSMCPNWGVRPITEEFQLTIVEEAHCLLSALYQSLSNLIPVHLRGVFEDKCIEVNHPEVLLASPNRPPPQPFISSPYRASTRRDVRNGGSIMQSFSPAPYAAAPRPQMSDACTQTFSTGDIEVLNVFYE | not soluble |
| KDMFNTKSSNGKLRIEDASHNARKLGLAPSSTDEKKIRDLYGDSLTYEQYLEYLTMCVHDRDNMEELIKMFSHFDNNSSGFLTKNQMKNILTTWGDALTEQEANDALNAFSSEDRINYKLFCEDIL | soluble |
| MGSDKIHHHHHHKAVPLASINGEWNIIEVNGSKVTPGESRTLPFITFDTATGRVSGNSGCNRMMGSFDVNAKPGSMELKGMASTRMMCPDMTTERNVLGALAQVKGYKKAGKDKMFLCNESNRPVVVLEKKEADVKLSVLNGEWKIKEVNGEAITSGMEKQPFIAFDVKKKTLHGNAGCNLINGGFETSTTNAKSISFPGVASTMMACPDMEVEGKILKAMNEVKSFDKLSGGGIGLYDANNALVIVLEK | not soluble |
| MGSDKIHHHHHHMANALGLDFGTTNTVLAQSIDETTTHSVQFTSMAGTTDSMRTALSFMKDAQLGARALKVEAGQAAIRQFIDNPGDCRFLQSIKTFAASALFQGTLVHARRFQFEDLMEVFLKRLETYAGDGWPATASRIVAGRPVHFAGASPDPELAMRRYNEALTRLGFPEIHYVYEPVAAAFYFAQHLTTDATVLVADFGGGTTDYSLIRFERKAGVLSAVPVGYSGVGLAGDQFDARIIEHLVAPEIGKGSQFKSFDKILDIPSNYYTSFSRWNQLSVFKSSKEFADLKQLVRQSLAPDKLELFIDLVEHDEGYPLYQAVSSTKMALSAADEAEFNFSPLGAAGRKTVKRQDFESWIADDLTRIESALDDVLTRTNTEAGAVDKVFLTGGTSFVPAVRRIFTERFSQDRIESGGEMVSIAHGLALIGDRDDIALWTA | not soluble |
